{
  "source": "the RNAGym collection of RNA variant scans (doi:10.1073/pnas.2313332121)",
  "parents": {"B1": {"name": "TPR 5TU (parent)", "chain": "GGAUCUUCUCGAUCUAACAAAAAAGACAAAUCUGCCACAAAGCUUGAGAGCAUCUUCGGAUGCAGAGGCGGCAGCCUUCGGUGGCGCGAUAGCGCCAACGUUCUCAACUAUGACACGCAAAACGCGUGCUCCGUUGAAUGGAGUUUAUCAUG"}},
  "note": "Fewer inactive variants are shown than the library holds.",
  "data": [
    {"variants_of": "B1", "test": "polymerase ribozyme fitness, log enrichment relative to wild type (log ratio); higher = more active; in vitro selection for triplet polymerase activity", "how_it_was_run": "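PCR was used to build mutant libraries for each subunit of a heterodimeric triplet polymerase ribozyme, which were then transcribed. A single in vitro selection round, in triplicate, used a frozen incubation at −7 °C and recovered extended constructs by gel excision, streptavidin beads and RT-PCR. Fitness is the logarithm of genotype enrichment relative to wild-type enrichment, averaged over replicates with inverse-variance weights. The logarithm is base 2, and after Illumina sequencing only genotypes with ≥10 input reads and ≥1 read per output were kept.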", "values": [
      {"variant": "U4C U53A C76G U90C U145C", "polymerase ribozyme fitness (log ratio)": "≤ -4.2"},
      {"variant": "U4A U56A", "polymerase ribozyme fitness (log ratio)": -0.0652},
      {"variant": "C5A U6C A30U A91U C118A A138G", "polymerase ribozyme fitness (log ratio)": "≤ -4.2"},
      {"variant": "C5U C14U C38A C57A A66U G67A G84U A110G", "polymerase ribozyme fitness (log ratio)": "≤ -4.2"},
      {"variant": "C5G C10U C57U C95U", "polymerase ribozyme fitness (log ratio)": -2.04},
      {"variant": "C5A G68C G80C C85G A138G", "polymerase ribozyme fitness (log ratio)": "≤ -4.2"},
      {"variant": "U4C A20U A64C C85G U101C C118U", "polymerase ribozyme fitness (log ratio)": "≤ -4.2"},
      {"variant": "U4G U6G A20C A24U A30C C95U A119C U148A", "polymerase ribozyme fitness (log ratio)": "≤ -4.2"},
      {"variant": "C5U C75U C85U", "polymerase ribozyme fitness (log ratio)": 1.35},
      {"variant": "U6C C10A C14G A49C C57U A91C C114U", "polymerase ribozyme fitness (log ratio)": "≤ -4.2"},
      {"variant": "C5G G84A C96A", "polymerase ribozyme fitness (log ratio)": -1.4},
      {"variant": "C5G C51A", "polymerase ribozyme fitness (log ratio)": -1.01},
      {"variant": "C5G A52C C76G G81A A91U", "polymerase ribozyme fitness (log ratio)": "≤ -4.2"},
      {"variant": "U6A A17G G58C A60C C69U C118U U146C", "polymerase ribozyme fitness (log ratio)": -4.14},
      {"variant": "U6C C38U A121U U127A G128U", "polymerase ribozyme fitness (log ratio)": -4.07},
      {"variant": "U4G G50A C96G U102G C123A", "polymerase ribozyme fitness (log ratio)": "≤ -4.2"},
      {"variant": "C5G C14A G48U U53A G74A G80C U82G C96G C118G G133U", "polymerase ribozyme fitness (log ratio)": "≤ -4.2"},
      {"variant": "C5A A22C C38A G71A A89C", "polymerase ribozyme fitness (log ratio)": "≤ -4.2"},
      {"variant": "U4G G48A U77G G83C U135A", "polymerase ribozyme fitness (log ratio)": "≤ -4.2"},
      {"variant": "C5G G81A A98G A121U G143C", "polymerase ribozyme fitness (log ratio)": -2.76},
      {"variant": "C5U U7G C14G A21C U56G C57A G58C C103A A142U U145C", "polymerase ribozyme fitness (log ratio)": "≤ -4.2"},
      {"variant": "U4C C75A C85G C99G U145G A147U", "polymerase ribozyme fitness (log ratio)": "≤ -4.2"},
      {"variant": "U4A U13C C36U C96G", "polymerase ribozyme fitness (log ratio)": -2.21},
      {"variant": "U4G A37C G50U G59U G86U", "polymerase ribozyme fitness (log ratio)": -3.71},
      {"variant": "C5U G62A U90G A138G A142U", "polymerase ribozyme fitness (log ratio)": "≤ -4.2"},
      {"variant": "C5U U6C C10U G83C", "polymerase ribozyme fitness (log ratio)": -2.89},
      {"variant": "C5G G50U G84U", "polymerase ribozyme fitness (log ratio)": -1.65},
      {"variant": "C5U A19G U135C G141U", "polymerase ribozyme fitness (log ratio)": -3.73},
      {"variant": "U4G U6A U13A C14A U33A A39G", "polymerase ribozyme fitness (log ratio)": "≤ -4.2"},
      {"variant": "U4C C69G G141U A147U", "polymerase ribozyme fitness (log ratio)": -1.91},
      {"variant": "C5A A12U U13A U15A G83U C95U A107U C108U", "polymerase ribozyme fitness (log ratio)": "≤ -4.2"},
      {"variant": "C5G C85U G88U C105G A119C", "polymerase ribozyme fitness (log ratio)": "≤ -4.2"},
      {"variant": "C5U A19U G83U G92U C123A G126U U146G", "polymerase ribozyme fitness (log ratio)": -4.19},
      {"variant": "C5G G152C", "polymerase ribozyme fitness (log ratio)": -2.87},
      {"variant": "U6A U15G G46C C76U C93G", "polymerase ribozyme fitness (log ratio)": "≤ -4.2"},
      {"variant": "U4G C10A U56A G71C G84C", "polymerase ribozyme fitness (log ratio)": "≤ -4.2"},
      {"variant": "U6A U45A", "polymerase ribozyme fitness (log ratio)": -2.51},
      {"variant": "U6C C10G A28U C57U C63U U77A C85U G86U U144C", "polymerase ribozyme fitness (log ratio)": "≤ -4.2"},
      {"variant": "C5U C18G G59A C93U C132U", "polymerase ribozyme fitness (log ratio)": -2.33},
      {"variant": "C5A G74A G81U U139G", "polymerase ribozyme fitness (log ratio)": -3.53},
      {"variant": "U4G U61G C76G C93G C103U", "polymerase ribozyme fitness (log ratio)": "≤ -4.2"},
      {"variant": "C5U A40G C85G", "polymerase ribozyme fitness (log ratio)": -3.18},
      {"variant": "C5A A52U G83A", "polymerase ribozyme fitness (log ratio)": -3.03},
      {"variant": "C5U C57U C87A A91C", "polymerase ribozyme fitness (log ratio)": "≤ -4.2"},
      {"variant": "U4G A21C U56G C85U G124U", "polymerase ribozyme fitness (log ratio)": -1.58},
      {"variant": "C5A G58C A60G G92A A121U", "polymerase ribozyme fitness (log ratio)": -1.56},
      {"variant": "C5U C63G A73G G81C C105U A115C A138C", "polymerase ribozyme fitness (log ratio)": "≤ -4.2"},
      {"variant": "C5G A23G A52U C87G C99A", "polymerase ribozyme fitness (log ratio)": "≤ -4.2"},
      {"variant": "U6A C35U C95G G100A", "polymerase ribozyme fitness (log ratio)": "≤ -4.2"},
      {"variant": "C5A A17C G83A G143U", "polymerase ribozyme fitness (log ratio)": -2.68},
      {"variant": "U4G G25U G48U U55G G84C A115C U134C", "polymerase ribozyme fitness (log ratio)": "≤ -4.2"},
      {"variant": "C5G U6A A28U A30U A39C U45C U53A C57A C96G A115U C129U G140C", "polymerase ribozyme fitness (log ratio)": -3.81},
      {"variant": "C5G A21U G59A", "polymerase ribozyme fitness (log ratio)": -0.0281},
      {"variant": "U6A A22C A39U U44A G70A C99A", "polymerase ribozyme fitness (log ratio)": "≤ -4.2"},
      {"variant": "U4G C54G G80C G92U A115C", "polymerase ribozyme fitness (log ratio)": "≤ -4.2"},
      {"variant": "C5G U6G U61C C85U", "polymerase ribozyme fitness (log ratio)": -3.57},
      {"variant": "U6A C79A C99U A107G", "polymerase ribozyme fitness (log ratio)": "≤ -4.2"},
      {"variant": "C5A C96A G143C", "polymerase ribozyme fitness (log ratio)": -3.53},
      {"variant": "C5U C99U", "polymerase ribozyme fitness (log ratio)": 0.209},
      {"variant": "U6C C27G C32A U53A A142U C149G", "polymerase ribozyme fitness (log ratio)": "≤ -4.2"},
      {"variant": "C5G U55A C85U C116U", "polymerase ribozyme fitness (log ratio)": -1.06},
      {"variant": "C5G G50A C87U", "polymerase ribozyme fitness (log ratio)": -2.86},
      {"variant": "C5A A21U A30G A39U G68A C149A", "polymerase ribozyme fitness (log ratio)": "≤ -4.2"},
      {"variant": "U4C U15C C87A A121C", "polymerase ribozyme fitness (log ratio)": "≤ -4.2"},
      {"variant": "C5U U31C A37U C76G U109C U135C", "polymerase ribozyme fitness (log ratio)": "≤ -4.2"},
      {"variant": "U6C A47U", "polymerase ribozyme fitness (log ratio)": -0.576},
      {"variant": "U4G C57G", "polymerase ribozyme fitness (log ratio)": -0.334},
      {"variant": "C5G A12G C63U G84C C96U", "polymerase ribozyme fitness (log ratio)": "≤ -4.2"},
      {"variant": "C5G U139A", "polymerase ribozyme fitness (log ratio)": -3.99},
      {"variant": "U4A G136A", "polymerase ribozyme fitness (log ratio)": 0.134},
      {"variant": "C5U A22U A98G A122U", "polymerase ribozyme fitness (log ratio)": 0.571},
      {"variant": "C5G A17U G74A A91G G141U", "polymerase ribozyme fitness (log ratio)": "≤ -4.2"},
      {"variant": "U4C A147C", "polymerase ribozyme fitness (log ratio)": -0.0283},
      {"variant": "U6A G50C G86U U102C A121C", "polymerase ribozyme fitness (log ratio)": "≤ -4.2"},
      {"variant": "U4G C54G C96G A137G", "polymerase ribozyme fitness (log ratio)": -4.19},
      {"variant": "U6A C54U C85G A115C", "polymerase ribozyme fitness (log ratio)": -2.97},
      {"variant": "C5A C14G", "polymerase ribozyme fitness (log ratio)": -0.996},
      {"variant": "U4G A22U U148C", "polymerase ribozyme fitness (log ratio)": -3.08},
      {"variant": "U4G A23U G68A U127A", "polymerase ribozyme fitness (log ratio)": "≤ -4.2"},
      {"variant": "C5U A20U G50C G81A G117A C132U", "polymerase ribozyme fitness (log ratio)": "≤ -4.2"},
      {"variant": "U6C C36A G67C C85U G124C C132U", "polymerase ribozyme fitness (log ratio)": "≤ -4.2"},
      {"variant": "C5U C35U U77G C85G A89U A110C U144G", "polymerase ribozyme fitness (log ratio)": "≤ -4.2"},
      {"variant": "C5U A21U G84A C131A", "polymerase ribozyme fitness (log ratio)": -2.96}
    ]}
  ]
}
